Measurements as given in US20240158497A1 (published 2024).

T1: human gp130 expressed endogenously on IMR-32/Stat3-luc cells (human, UniProt P40189 23-918)
T1 sequence: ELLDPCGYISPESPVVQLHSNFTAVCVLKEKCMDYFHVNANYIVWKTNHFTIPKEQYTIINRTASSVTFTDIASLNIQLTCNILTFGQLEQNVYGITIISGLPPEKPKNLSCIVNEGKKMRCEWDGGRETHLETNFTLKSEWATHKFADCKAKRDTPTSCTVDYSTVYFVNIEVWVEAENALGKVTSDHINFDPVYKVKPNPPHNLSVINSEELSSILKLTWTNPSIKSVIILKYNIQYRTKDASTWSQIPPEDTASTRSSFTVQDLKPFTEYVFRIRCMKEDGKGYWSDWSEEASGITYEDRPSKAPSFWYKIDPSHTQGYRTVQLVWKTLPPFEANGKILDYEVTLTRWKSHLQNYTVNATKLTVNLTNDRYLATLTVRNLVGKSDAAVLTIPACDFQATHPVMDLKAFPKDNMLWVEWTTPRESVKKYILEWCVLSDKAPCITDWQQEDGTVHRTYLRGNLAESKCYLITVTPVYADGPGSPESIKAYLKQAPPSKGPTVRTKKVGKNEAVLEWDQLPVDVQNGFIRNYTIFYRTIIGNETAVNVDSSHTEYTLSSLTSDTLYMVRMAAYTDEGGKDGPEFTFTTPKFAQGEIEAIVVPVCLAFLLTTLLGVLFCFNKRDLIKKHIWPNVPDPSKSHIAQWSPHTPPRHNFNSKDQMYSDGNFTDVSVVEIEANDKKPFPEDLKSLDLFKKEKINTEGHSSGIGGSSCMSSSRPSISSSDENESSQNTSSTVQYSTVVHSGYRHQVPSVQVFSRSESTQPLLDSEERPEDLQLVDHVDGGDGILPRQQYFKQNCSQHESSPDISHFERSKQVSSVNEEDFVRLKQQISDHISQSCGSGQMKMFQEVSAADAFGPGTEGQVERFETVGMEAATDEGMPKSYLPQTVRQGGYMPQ

T2: full length (FL) human gp130 over-expressed on HEK293/Stat3-luc/gp130-2X Sort cells (human, UniProt P40189 23-918)
T2 sequence: T1 sequence

B1: MAb16673 (antibody, V domains shown)
VH: EVQLVQSGAEVKKPGESLKISCKGSGYSFTSYWIDWVRQMPGKGLEWMGIIYPDDSDTRYSPSFQGQVTMSVDKSISTAYLQWSSLKASDTAIYYCARHERGIVEAGTDYYYYYGMDVWGQGTTVTVSS
VL: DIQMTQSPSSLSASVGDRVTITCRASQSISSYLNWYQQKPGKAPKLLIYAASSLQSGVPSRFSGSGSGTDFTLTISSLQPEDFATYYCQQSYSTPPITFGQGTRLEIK
notes: hIgG4 isotype control used
B2: MAb16682 (antibody, V domains shown)
VH: EVQLVESGGGLVQPGGSLRLSCAASGFTFSTYWMNWVRQAPGKGLEWVANIKEDGSEKYYVDSVKGRFTISRDNAKNSLYLQMNSLRAEDTAVYYCAREGFGVVTYIWGQGTMVTVSS
VL: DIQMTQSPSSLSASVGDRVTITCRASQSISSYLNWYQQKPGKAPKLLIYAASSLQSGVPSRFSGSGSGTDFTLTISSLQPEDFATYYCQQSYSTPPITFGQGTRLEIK
notes: hIgG4 isotype control used
B3: MAb16636 (antibody, V domains shown)
VH: QLQLQESGPGLVKPSETLSLICTVSGGSISSNNYYWGWIRQPPGKGLEWIGNLYGSGSTYYNPSLKSRVTISVDTSKNQFSLKLSFVTAADTAVYHCARWDTNGGAFDIWGQGTMVTVSS
VL: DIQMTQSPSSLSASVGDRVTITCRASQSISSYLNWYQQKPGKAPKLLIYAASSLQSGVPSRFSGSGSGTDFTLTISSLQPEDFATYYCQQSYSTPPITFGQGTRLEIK
notes: hIgG4 isotype control used
B4: MAb16623 (antibody, V domains shown)
VH: EVQLVESGGGLVQPGGSLRLSCAASGLTFSSYEMNWVRQAPGKGLEWVSHISSAGSTKYYADSVKGRFTISRDNAKNSLFLQMNSLRAEDTAIYYCAGYNYAYYYFGVDVWGQGTTVTVSS
VL: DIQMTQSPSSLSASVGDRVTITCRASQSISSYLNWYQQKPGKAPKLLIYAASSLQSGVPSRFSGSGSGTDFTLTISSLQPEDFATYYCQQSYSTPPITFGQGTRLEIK
notes: hIgG4 isotype control used
B5: MAb16666 (antibody, V domains shown)
VH: EVQLVESGGGLVQSGGSLRLSCAASGFTFSRYEMNWVRQAPGKGLEWVAYISNTGTTRDYSDSVKGRFTISRDNAKNSLYLQMSSLRVEDTAVYYCVREKFSGTSDWFDPWGQGTLVTVSS
VL: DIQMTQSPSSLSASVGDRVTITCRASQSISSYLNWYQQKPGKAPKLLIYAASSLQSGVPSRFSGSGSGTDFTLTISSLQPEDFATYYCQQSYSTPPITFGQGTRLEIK
notes: hIgG4 isotype control used
B6: MAb16618 (antibody, V domains shown)
VH: QVQLQESGPGLVKPSETLSLTCTVSGGSISNYYWTWIRQPPGKGLEWIGHISNSGTTNYNPSLKSRVTISVDTSKNQFSLKLTSVTAADTAVYYCARLPLGIAAVDTDYYYYFGMDVWGQGTTVTVSS
VL: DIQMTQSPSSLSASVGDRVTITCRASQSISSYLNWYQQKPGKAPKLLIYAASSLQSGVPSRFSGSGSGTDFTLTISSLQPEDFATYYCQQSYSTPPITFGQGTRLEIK
notes: hIgG4 isotype control used
B7: MAb16622 (antibody, V domains shown)
VH: EVQLVESGGGVVRPGGSLRLSCTASGFTFDDYGMSWVRQAPGKGLEWVSGINWNGGRTEYADAVKGRFIISRDNAKNSLYLQMNSLRAEDTALYFCARTELRWDYWGQGTLVTVSS
VL: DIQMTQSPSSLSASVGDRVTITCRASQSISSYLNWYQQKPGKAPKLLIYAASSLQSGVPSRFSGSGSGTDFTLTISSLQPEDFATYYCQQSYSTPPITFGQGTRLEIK
notes: hIgG4 isotype control used
B8: MAb16656 (antibody, V domains shown)
VH: EVQLVESGGGLVQPGRSLRLSCAASGFTLDDFAMHWVRQAPGKGLEWVSGISWNSGNIGYADSVKGRFTISRDNARNSLYLQMNSLRAEDTALYYCTSGYYLYYAMDVWGQGTTVTVSS
VL: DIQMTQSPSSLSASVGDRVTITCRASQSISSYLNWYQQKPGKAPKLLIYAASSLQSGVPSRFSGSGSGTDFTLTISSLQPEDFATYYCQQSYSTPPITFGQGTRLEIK
notes: hIgG4 isotype control used
B9: MAb16664 (antibody, V domains shown)
VH: QVQLVQSGTEVKKPGSSVKVSCKASGGTFSTYPINWVRQAPGQGLEWMGGIIPIFGTASYAQKFQGRVAITTDESTSTAYMELNSLRSEDTAVYYCARERPNWGSNDYWGQGTLVTVSS
VL: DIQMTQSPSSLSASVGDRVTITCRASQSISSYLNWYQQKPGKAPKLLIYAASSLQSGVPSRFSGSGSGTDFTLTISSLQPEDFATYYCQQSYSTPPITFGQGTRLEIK
notes: hIgG4 isotype control used
B10: MAb16683 (antibody, V domains shown)
VH: QVQLVESGGGLVKPGGSLRLSCAASGFTFSDYYMTWIRQTPGKGLDWVSYISSSGTNKYNADSVKGRFTISRDNAKNSLYLQMNSLRAEDTAVYYCVRDPPWGMDVWGQGTTVTVSS
VL: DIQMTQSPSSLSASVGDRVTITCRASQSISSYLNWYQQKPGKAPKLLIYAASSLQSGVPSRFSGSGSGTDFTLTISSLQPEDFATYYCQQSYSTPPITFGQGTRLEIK
notes: hIgG4 isotype control used
B11: MAb16665 (antibody, V domains shown)
VH: QVQLVESGGGVVQPGRSLRLACAASGFTFRSYGMHWVRQAPGKGLEWVAVIWYDGSNKYYTDSVKGRFTISRDNSKNTLYLQMNSLRAEDTAMYYCAIDKWATVTTYLFDYWGQGTLVTVSS
VL: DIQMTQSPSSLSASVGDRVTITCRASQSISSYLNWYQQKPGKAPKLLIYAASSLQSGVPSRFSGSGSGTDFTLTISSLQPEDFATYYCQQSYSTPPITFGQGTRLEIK
notes: hIgG4 isotype control used
B12: MAb16614 (antibody, V domains shown)
VH: QVQLVESGGGVVQPGGSLRLSCAASGFTFSTYDIHWVRQAPGKGLEWVAVISFDGSNRNYGDSVKGRFTISRDNSDNTLFLEMNNLRFEDTAVYYCAKEGYGVDFQHWGQGTLVTVSS
VL: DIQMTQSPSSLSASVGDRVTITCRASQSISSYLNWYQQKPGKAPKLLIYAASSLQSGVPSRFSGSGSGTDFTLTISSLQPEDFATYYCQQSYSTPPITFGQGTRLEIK
notes: hIgG4 isotype control used
B13: MAb16637 (antibody, V domains shown)
VH: QVQLVQSGAEVKKPGASVKVSCKASGYTFTSLGISWVRQAPGQGLEWMGWISAYSGNRDYAQKFQGRVTMTTDTSTSTAYMELRSLRSDDTAVYYCARSLRFDYWGQGTLVTVSS
VL: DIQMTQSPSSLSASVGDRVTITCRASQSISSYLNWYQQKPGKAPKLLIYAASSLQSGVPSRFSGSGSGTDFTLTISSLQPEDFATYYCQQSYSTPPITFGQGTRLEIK
notes: hIgG4 isotype control used
B14: MAb16662 (antibody, V domains shown)
VH: EVQLVESGGGLVQPGGSLRLSCTASGFTFSNYAIFWVRQAPGKGLEYVSGISNNGVTKYYADSVRDRFTISRDNSRNTVSIQMDSLRTEDMAVYYCARENWGSDDGFDIWGQGTMVTVSS
VL: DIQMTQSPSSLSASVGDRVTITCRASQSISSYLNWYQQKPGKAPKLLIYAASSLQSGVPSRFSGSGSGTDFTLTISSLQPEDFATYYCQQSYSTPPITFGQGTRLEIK
notes: hIgG4 isotype control used
B15: MAb16669 (antibody, V domains shown)
VH: EVQLVESGGGLVQPGGSLRLSCAASGFTFSSYAMNWVRQAPGKGLEWVSAISGSGDSTYYTDSVKGRFTISRDNSKNTLYLQMNTLRAEDTAVYYCAKEEIVMLVGATPGWFDPWGQGTLVTVSS
VL: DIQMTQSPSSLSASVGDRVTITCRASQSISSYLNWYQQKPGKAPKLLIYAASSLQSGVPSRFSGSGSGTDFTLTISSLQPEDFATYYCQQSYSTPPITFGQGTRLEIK
notes: hIgG4 isotype control used
B16: MAb16676 (antibody, V domains shown)
VH: QVQLVQSGAEVMKPGASVKVSCRASGYTFSSYDINWVRQAPGQGLEWMGWISTATGNTNYPQKVQGRVTMTTDTSTNTAYMELRSLRSDDTAVYYCTREGNSKGWLDPWGQGTLVTVSS
VL: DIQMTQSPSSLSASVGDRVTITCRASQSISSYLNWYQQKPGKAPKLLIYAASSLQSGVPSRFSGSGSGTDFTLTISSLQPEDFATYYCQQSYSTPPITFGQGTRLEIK
notes: hIgG4 isotype control used
B17: MAb16659 (antibody, V domains shown)
VH: QVQLVQSGPEVKKPGSSVKVSCKASGGTIDRNEITWVRQAPGQGLEWMGVIIPILGEAHYERKFQGRLTITMDESTSTAYMELSNLRSEDTAVYYCARERAARGYLDYWGQGTLVTVSS
VL: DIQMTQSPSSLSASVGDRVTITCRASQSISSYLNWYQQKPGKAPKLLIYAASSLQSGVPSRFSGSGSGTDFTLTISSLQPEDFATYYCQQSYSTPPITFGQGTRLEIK
notes: hIgG4 isotype control used

Target: T1, human gp130 expressed endogenously on …
Test: cell-based or functional assay

% inhibition; CNTF (20 pM) [%]	% inhibition; LIF (20 pM) [%]	% inhibition; OSM (100 pM) [%]	IC50 [M]; CNTF (20 pM) [M]	IC50 [M]; LIF (20 pM) [M]	IC50 [M]; OSM (100 pM) [M]	Binder
46	52	62	> 1e-07	9e-09	> 5e-08	B1
–	–	23	–	–	> 1e-07	B2
62	76	82	> 1e-08	> 1e-08	> 1e-08	B3
22	–	–	> 1e-07	–	–	B4
95	–	–	7.1e-10	–	–	B5
33	40	52	> 1e-07	> 1e-07	> 5e-08	B6

Target: T2, full length (FL) human gp130 …
Test: FACS, 10 nM Ab, HEK293/Stat3-luc/gp130-2X Sort cells
Excerpt: In order to assess cell binding by anti-GP130 antibodies of the invention two cell lines were generated. One cell line generated was HEK293 cells stably over-expressing full length (FL) human gp130 (amino acids 1-918 of accession #P40189 with leucine at position 2 changed to valine, a natural variant) along with a luciferase reporter (Stat3-luciferase, Stat3-luc, SA Bioscience, #CLS-6028L). The cells were sorted twice using flow cytometry for high expression of gp130. It is known hereafter as HEK293/Stat3-luc/gp130-2 X Sort. IMR-32 cells (human Neuroblastoma, ATCC), were also evaluated for cell binding as these cells express gp130 endogenously and were used for bioassays. The cells used for binding were generated to stably express a luciferase reporter (Stat3-luciferase, Stat3-luc, SA Bioscience, #CLS-6028L), and are referred to hereafter as IMR-32/STAT3-Luc cells.
For the FACS analysis, 10 nM of the antibodies were used to stain 0.5×10⁶ cells/well of each cell type at 4° C. in PBS (without calcium and magnesium) containing 2% FBS for 30 minutes. IMR-32/STAT3-luc cells were incubated with 1 mg/mL mouse IgG for 30 minutes at 4° C. to block Fc receptors prior to adding the antibodies. To test whether the anti-gp130 antibody binding is specific for gp130 on the IMR-32 cells, antibodies were added to IMR-32/Stat3-luc cells with or without being pre-bound to 1000 nM of recombinant protein of the ecto-domain of human gp130 fused to myc-myc-his tag (hgp130.mmh) for 30 minutes at 25° C. […] Cells were fixed using BD CytoFix™ (Becton Dickinson, #554655) and analyzed on an IQue® (Intellicyt®) Flow Cytometer. Unstained and secondary antibody alone controls were also tested for all cell lines. The results were analyzed using ForeCyt® (IntelliCyt®) software to determine the geometric means of fluorescence for viable cells.

MFI - Normalized to Unstained Control [ratio]	Binder
91	B7
107	B1
132	B8
45	B9
75	B10
55	B11
80	B2
94	B12
92	B3
121	B13
49	B14
96	B4
53	B15
159	B5
105	B6
74	B16
81	B17
